The record followed here is PMC2656442.

One may read the stoichiometry N as a count of units in the complex or per binding partner.

For experiment [1], the target named is human Cdc42 (residues 1-191) (human) (UniProt P60953).
The target of experiment [2] is human RhoA (residues 1-193) (human) (UniProt P61586).
For experiment [3], the target named is human Cdc42 (residues 1-191) (human) (UniProt P60953). As to the kind of experiment: ITC. On the technique in general: ITC needs no label: the signal is the heat of the interaction.
In experiment [4] the target is human RhoA (residues 1-193) (human) (UniProt P61586). As to the kind of experiment: ITC.
The target of experiment [5] is human Rac1 (residues 1-192) (human) (UniProt P63000). Kind of experiment: ITC.
Experiment [6] addresses human Cdc42 (residues 1-191) (human) (UniProt P60953). This is another data set of the same source.
The target in experiment [7] is human RhoA (residues 1-193) (human) (UniProt P61586). This is another data set of the same source.
The target in experiment [8] is human Cdc42 (residues 1-191) (human) (UniProt P60953). As to the kind of experiment: ITC. The source holds these as a separate data set.
In experiment [9] the target is human RhoA (residues 1-193) (human) (UniProt P61586). As to the kind of experiment: ITC. The source holds these as a separate data set.

Read-outs that look alike come from different tables or passages of the source. Bounds are passed on as bounds.

Sequence of UniProt P60953 (P60953 whole entry, the tested form may be a part): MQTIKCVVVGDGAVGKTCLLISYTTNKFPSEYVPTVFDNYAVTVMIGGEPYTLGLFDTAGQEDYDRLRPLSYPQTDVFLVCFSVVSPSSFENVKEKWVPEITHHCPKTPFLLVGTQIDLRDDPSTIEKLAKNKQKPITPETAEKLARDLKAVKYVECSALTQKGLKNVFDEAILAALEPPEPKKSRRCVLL
Sequence of UniProt P61586 (P61586 whole entry, the tested form may be a part): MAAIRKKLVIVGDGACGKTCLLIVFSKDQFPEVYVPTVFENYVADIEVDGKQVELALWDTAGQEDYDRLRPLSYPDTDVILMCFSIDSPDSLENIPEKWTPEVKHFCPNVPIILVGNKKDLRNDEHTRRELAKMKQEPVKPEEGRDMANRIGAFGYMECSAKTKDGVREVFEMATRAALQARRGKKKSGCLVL

GAP^Graf N225A (domain or fragment): in experiment [1], the KM of GAP-stimulated GTP hydrolysis (MESG/PNP assay), GTP·Mg2+-loaded Cdc42 amounted to 8 µM and the kcat/KM of GAP-stimulated GTP hydrolysis (MESG/PNP assay), GTP·Mg2+-loaded Cdc42 came to 205000 M⁻¹ s⁻¹. For the same substance, in experiment [2], the KM of GAP-stimulated GTP hydrolysis (MESG/PNP assay), GTP·Mg2+-loaded RhoA was determined as 24.4 µM and the kcat/KM of GAP-stimulated GTP hydrolysis (MESG/PNP assay), GTP·Mg2+-loaded RhoA stood at 205000 M⁻¹ s⁻¹. In [3], this substance had a Ka of 1.56e+06 M⁻¹ and a dH of 9.85 kcal/mol. In experiment [4], this substance came in with a Ka of 303000 M⁻¹ and a dH of 10.7 kcal/mol.
Turning to GAP^Graf I358A (domain or fragment), in [1], the KM of GAP-stimulated GTP hydrolysis (MESG/PNP assay), GTP·Mg2+-loaded Cdc42 was determined as 15 µM and the kcat/KM of GAP-stimulated GTP hydrolysis (MESG/PNP assay), GTP·Mg2+-loaded Cdc42 stood at 333000 M⁻¹ s⁻¹. Also, in experiment [2], the KM of GAP-stimulated GTP hydrolysis (MESG/PNP assay), GTP·Mg2+-loaded RhoA is 18.2 µM and the kcat/KM of GAP-stimulated GTP hydrolysis (MESG/PNP assay), GTP·Mg2+-loaded RhoA was 41700 M⁻¹ s⁻¹. In experiment [3], this substance yielded a Ka of 946000 M⁻¹ and a dH of 14 kcal/mol. In experiment [4], this substance registered a Ka of 255000 M⁻¹ and a dH of 14.4 kcal/mol.
For the substance GAP^Graf I358E (domain or fragment), in [1], the KM of GAP-stimulated GTP hydrolysis (MESG/PNP assay), GTP·Mg2+-loaded Cdc42 came to 12.4 µM. Moreover, the Ka in experiment [3] turned out to be 97000 M⁻¹; in experiment [4] it was 33000 M⁻¹. The dH was found to be 4.64 kcal/mol in [3] and 3.92 kcal/mol in [4].
On to GAP^Graf V224K (domain or fragment), for which, in experiment [1], the KM of GAP-stimulated GTP hydrolysis (MESG/PNP assay), GTP·Mg2+-loaded Cdc42 came out at 10.2 µM and the kcat/KM of GAP-stimulated GTP hydrolysis (MESG/PNP assay), GTP·Mg2+-loaded Cdc42 is 457000 M⁻¹ s⁻¹. Also, the KM of GAP-stimulated GTP hydrolysis (MESG/PNP assay), GTP·Mg2+-loaded RhoA in experiment [2] turned out to be 10.3 µM. Moreover, in experiment [3], the Ka worked out at 92000 M⁻¹ and the dH came out at 10.5 kcal/mol. Also, in experiment [4], the Ka is 338000 M⁻¹ and the dH turned out to be 16.8 kcal/mol.
Regarding GAP^Graf V338A (domain or fragment), in [1], the KM of GAP-stimulated GTP hydrolysis (MESG/PNP assay), GTP·Mg2+-loaded Cdc42 was 5.9 µM and the kcat/KM of GAP-stimulated GTP hydrolysis (MESG/PNP assay), GTP·Mg2+-loaded Cdc42 is 243000 M⁻¹ s⁻¹. Moreover, in [2], the KM of GAP-stimulated GTP hydrolysis (MESG/PNP assay), GTP·Mg2+-loaded RhoA came to 31.3 µM and the kcat/KM of GAP-stimulated GTP hydrolysis (MESG/PNP assay), GTP·Mg2+-loaded RhoA was 26700 M⁻¹ s⁻¹. Moreover, in experiment [3], the Ka came out at 203000 M⁻¹ and the dH is 16.9 kcal/mol. In experiment [4], this substance returned a Ka of 93000 M⁻¹ and a dH of 14.5 kcal/mol.
As to GAP^Graf R266A (domain or fragment), in experiment [1], the KM of GAP-stimulated GTP hydrolysis (MESG/PNP assay), GTP·Mg2+-loaded Cdc42 came to 11 µM and the kcat/KM of GAP-stimulated GTP hydrolysis (MESG/PNP assay), GTP·Mg2+-loaded Cdc42 amounted to 278000 M⁻¹ s⁻¹. Also, in experiment [2], the KM of GAP-stimulated GTP hydrolysis (MESG/PNP assay), GTP·Mg2+-loaded RhoA is 25 µM and the kcat/KM of GAP-stimulated GTP hydrolysis (MESG/PNP assay), GTP·Mg2+-loaded RhoA came to 48300 M⁻¹ s⁻¹. Also, in experiment [3], the Ka is 773000 M⁻¹ and the dH is 13.8 kcal/mol. In [4], this substance registered a Ka of 93000 M⁻¹ and a dH of 10.3 kcal/mol.
As to GAP^Graf E253A (domain or fragment), in experiment [1], the KM of GAP-stimulated GTP hydrolysis (MESG/PNP assay), GTP·Mg2+-loaded Cdc42 was determined as 19.9 µM and the kcat/KM of GAP-stimulated GTP hydrolysis (MESG/PNP assay), GTP·Mg2+-loaded Cdc42 was determined as 532000 M⁻¹ s⁻¹. In [2], the KM of GAP-stimulated GTP hydrolysis (MESG/PNP assay), GTP·Mg2+-loaded RhoA was found to be 11.3 µM and the kcat/KM of GAP-stimulated GTP hydrolysis (MESG/PNP assay), GTP·Mg2+-loaded RhoA came to 330000 M⁻¹ s⁻¹. In experiment [3], the Ka was 298000 M⁻¹ and the dH is 7.48 kcal/mol. In experiment [4], the Ka was determined as 456000 M⁻¹ and the dH is 10.1 kcal/mol.
GAP^Graf E253K (domain or fragment): in experiment [1], the KM of GAP-stimulated GTP hydrolysis (MESG/PNP assay), GTP·Mg2+-loaded Cdc42 was 10.2 µM and the kcat/KM of GAP-stimulated GTP hydrolysis (MESG/PNP assay), GTP·Mg2+-loaded Cdc42 was found to be 457000 M⁻¹ s⁻¹. Also, in experiment [2], the KM of GAP-stimulated GTP hydrolysis (MESG/PNP assay), GTP·Mg2+-loaded RhoA came to 8.8 µM and the kcat/KM of GAP-stimulated GTP hydrolysis (MESG/PNP assay), GTP·Mg2+-loaded RhoA came out at 413000 M⁻¹ s⁻¹. Also, in [3], the Ka is 445000 M⁻¹ and the dH came out at 10.5 kcal/mol. Besides, in experiment [4], the Ka turned out to be 643000 M⁻¹ and the dH was 12 kcal/mol.
Turning to “GAP domain of Graf (GTPase Regulator Associated with Focal Adhesion Kinase), wild type (domain or fragment)”, in experiment [3], the Ka amounted to 2.42e+06 M⁻¹, the dH was found to be 15 kcal/mol and the stoichiometry N worked out at 1. In experiment [4], this substance showed a Ka of 554000 M⁻¹, a dH of 13 kcal/mol and a stoichiometry N of 1. In experiment [5], the fold lower KA than for Cdc42 (m1 with m18) is 100 fold and the fold lower KA than for RhoA (m1 with m19) is greater than 20 fold. Also, in experiment [6], the kcat of GAP-stimulated GTP hydrolysis (MESG/PNP assay), GTP·Mg2+-loaded Cdc42 was 3.65 s⁻¹. For the same substance, in experiment [7], the KM of GAP-stimulated GTP hydrolysis (MESG/PNP assay), GTP·Mg2+-loaded RhoA turned out to be 6.8 µM; the kcat of GAP-stimulated GTP hydrolysis (MESG/PNP assay), GTP·Mg2+-loaded RhoA turned out to be 1.46 s⁻¹; the kcat/KM of GAP-stimulated GTP hydrolysis (MESG/PNP assay), GTP·Mg2+-loaded RhoA was found to be 217000 M⁻¹ s⁻¹. In [8], this substance returned a Ka of 26100 M⁻¹ and a dH of 5.47 kcal/mol. Also, in experiment [9], the Ka stood at 33800 M⁻¹ and the dH amounted to 1.6 kcal/mol.
As to GAP^Graf V338L (domain or fragment), in experiment [1], the KM of GAP-stimulated GTP hydrolysis (MESG/PNP assay), GTP·Mg2+-loaded Cdc42 came to 2.4 µM and the kcat/KM of GAP-stimulated GTP hydrolysis (MESG/PNP assay), GTP·Mg2+-loaded Cdc42 is 522000 M⁻¹ s⁻¹. In addition, in [2], the KM of GAP-stimulated GTP hydrolysis (MESG/PNP assay), GTP·Mg2+-loaded RhoA was 8.7 µM and the kcat/KM of GAP-stimulated GTP hydrolysis (MESG/PNP assay), GTP·Mg2+-loaded RhoA was determined as 33300 M⁻¹ s⁻¹. In experiment [3], this substance registered a Ka of 1.18e+06 M⁻¹ and a dH of 15.9 kcal/mol. In experiment [4], this substance registered a Ka of 220000 M⁻¹ and a dH of 9.8 kcal/mol.
